The values below come from patent US20220387578A1.

The target of assay [1] is H12 HA A/duck/Alberta/60/1976, recombinant (influenza A virus).
The target in assay [2] is H15 HA A/shearwater/Western Australia/2576/1979, recombinant (influenza A virus).
Assay [3] concerns the target H3 HA A/Hong Kong/1/1968 (H3N2), recombinant soluble trimer (influenza A virus) (UniProt Q91MA7).
The target in assay [4] is H2 HA A/Singapore/1/1957, recombinant soluble trimer (influenza A virus).
Assay [5] deals with H14 HA A/mallard duck/Astrakhan/263/1982, recombinant (influenza A virus).
In assay [6] the target is H9 HA A/Hong Kong/1073/99, recombinant (influenza A virus).
Assay [7] concerns the target H5 HA A/Indonesia/05/2005 (H5N1), recombinant (influenza A virus).
For assay [8], the target named is H7 HA A/Shanghai/2/2013 (H7N9), recombinant uncleaved trimer (influenza A virus).

As to “rFluA-20 light chain mutant Q55A (antibody)”, the EC50 relative to wild type rFluA-20 in assay [1] and in assay [2] was above 100 fold throughout.
Turning to “rFluA-20 heavy chain mutant C101A (antibody)”, the EC50 (as a rule, the midpoint of the concentration-response curve) came to 0.13 µg/mL in assay [3], 0.09 µg/mL in assay [1], 0.44 µg/mL in assay [4] and 0.11 µg/mL in assay [2]. In addition, the EC50 relative to wild type rFluA-20 in assay [5], in assay [6], in assay [7] and in assay [8] was above 100 fold in each case.
As to “rFluA-20 light chain mutant N53A (antibody)”, the EC50 in assay [1] was determined as 0.03 µg/mL; in assay [4], 0.16 µg/mL; in assay [6], 0.17 µg/mL; in assay [8], 0.87 µg/mL; in assay [2], 0.06 µg/mL. The EC50 relative to wild type rFluA-20 in assay [5] and in assay [7] was above 100 fold in each case.
